The values below are quoted from earlier work in article PMC12455926.

The target of the data set is AXL (Homo sapiens) (UniProt P30530).

For the substance Spike protein NTD (from UniProt P0DTC2), the Kd (as a rule, the free concentration of one partner at which half of the binding sites on the other are occupied at equilibrium, for simple one-to-one binding) is 0.882 µM.
